Reference: patent US20220195053A1 (SURROZEN OPERATING, published 2022)

T1: Mucin 13, cell surface associated (MUC-13), on human intestine HT29 cells (human, UniProt Q9H3R2 19-512)
T1 construct: whole, on cells
T1 sequence (looked up): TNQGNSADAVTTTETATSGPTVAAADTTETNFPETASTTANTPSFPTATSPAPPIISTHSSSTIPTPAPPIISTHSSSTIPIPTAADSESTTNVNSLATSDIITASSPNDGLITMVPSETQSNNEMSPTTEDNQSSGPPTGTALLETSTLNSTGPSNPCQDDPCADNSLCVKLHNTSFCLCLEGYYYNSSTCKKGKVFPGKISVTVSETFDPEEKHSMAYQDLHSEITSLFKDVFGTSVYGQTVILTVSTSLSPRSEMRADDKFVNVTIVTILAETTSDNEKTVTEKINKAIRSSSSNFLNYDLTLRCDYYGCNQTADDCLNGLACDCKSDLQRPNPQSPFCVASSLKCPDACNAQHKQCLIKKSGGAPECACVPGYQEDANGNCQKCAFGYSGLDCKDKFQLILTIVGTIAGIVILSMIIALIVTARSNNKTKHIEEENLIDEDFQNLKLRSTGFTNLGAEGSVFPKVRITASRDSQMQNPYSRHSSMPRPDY


Legend:
[1] = target: T1, Mucin 13, cell surface associated …; assay: Flow cytometry (FACS) on MUC-13 expressing HT29 cells, antibody at 10 nM, compared with the anti-GFP IgG control. HEK293 cells serve as the MUC-13 negative control.
Procedure: (§1) Cell surface binding of the MUC-13 antibodies was examined by FACS at 10 nM.
(§2) The MUC-13 binders C4, C7, and C14 (see, e.g., WO2016168607A1) were cloned and produced in the full-length IgG format and their binding capacity to MUC-13 was determined by FACS analysis to MUC-13 expressing HT29 cells. Their potential binding to MUC-13 non-expressing HEK293 cells was also analyzed as a negative control. Cells were harvested and washed 2× with FACS buffer (PBS (—Ca²⁺, —Mg²⁺), 0.1% BSA, 0.5% sodium Azide) and resuspended in FACS buffer at 10⁶ cells/ml. 60 μl of the cell suspension was aliquoted to each well of a 96-well v bottom plate, and the plate was spun for 3 min at 1500 rpm to remove the FACS buffer before adding corresponding MUC-13 antibody or anti-GFP control antibody at 10 nM diluted in FACS buffer and incubated at 4C for 1 hour. Plate was then spun to remove the primary antibodies and washed 1× with FACS buffer before adding Alexa Fluor® 488 goat anti-human secondary antibody (ThermoFisher Scientific) and incubating at 4C for 30 min. This media was then removed after spinning, and the plate washed 1× in FACS buffer. Cells were then resuspended in […] FACS buffer and analyzed on a BD Accuri™ Cell Analyzers (Becton Dickinson) at 10,000 events. […]

[2] = target: T1, Mucin 13, cell surface associated …; assay: Flow cytometry (FACS) on MUC-13 expressing HT29 cells, antibody at 10 nM, fluorescent goat anti-human secondary antibody, compared with the anti-GFP IgG control. MUC-13 negative HEK293 cells serve as the specificity control.
Procedure: as §1, §2

| binding result [1] | binding result [2] | Binder |
| --- | --- | --- |
| no binding (tested: 10 nM) |  | C4 MUC-13 antibody, full-length IgG format (antibody, V domains shown) VH: DVQLQESGPGLVKPSQSLSLTCSVTGYSITSGYYWNWIRQFPGNKLEWMGYISYDGSNNYNPSLKNRISITRDTSKNQFFLKLNSVTTEDTATYYCVRVPTMITSYYFDYWGQGTTLTVSS VL: QIVLTQSPAIMSASPGEKVTISCSASSSVGYIYWYQQKPGSSPKPWIYRTSNLASGVPARFSGSGSGTSYSLTISSMEAEDAATYYCQQYHSYPPTFGGGTKLEIKR |
|  | binds | C14 MUC-13 antibody, full-length IgG format (antibody, V domains shown) VH: QVQLQQSGAELVRPGSSVKISCKASGYAFSTYWMNWVKQRPGQGLEWIGQIYPGDGDTYYNGNFKGKATLTADKSSSTAYMQLSSLTSEDSAVYFCAVFWDGYWGQGTTLTVSS VL: QIVLTQSPTIMSASPGEKVTMTCSASSSVTYIHWYQQKSGTSPKRWIYDTSKLASGVPARFGGSGSGTSYSLTINSMETEDAATYYCQQWSSNPFTFGSGTKLEIKR |
